{
  "source": "paper PMC10027685",
  "about": "“Frozen fresh blood plasma preserves the functionality of native human α2-macroglobulin” (Scientific Reports, 2023)",
  "proteins": {"B1": {"name": "native human α2-macroglobulin (natural protein, UniProt P01023 24-1474, looked up)", "chain": "SVSGKPQYMVLVPSLLHTETTEKGCVLLSYLNETVTVSASLESVRGNRSLFTDLEAENDVLHCVAFAVPKSSSNEEVMFLTVQVKGPTQEFKKRTTVMVKNEDSLVFVQTDKSIYKPGQTVKFRVVSMDENFHPLNELIPLVYIQDPKGNRIAQWQSFQLEGGLKQFSFPLSSEPFQGSYKVVVQKKSGGRTEHPFTVEEFVLPKFEVQVTVPKIITILEEEMNVSVCGLYTYGKPVPGHVTVSICRKYSDASDCHGEDSQAFCEKFSGQLNSHGCFYQQVKTKVFQLKRKEYEMKLHTEAQIQEEGTVVELTGRQSSEITRTITKLSFVKVDSHFRQGIPFFGQVRLVDGKGVPIPNKVIFIRGNEANYYSNATTDEHGLVQFSINTTNVMGTSLTVRVNYKDRSPCYGYQWVSEEHEEAHHTAYLVFSPSKSFVHLEPMSHELPCGHTQTVQAHYILNGGTLLGLKKLSFYYLIMAKGGIVRTGTHGLLVKQEDMKGHFSISIPVKSDIAPVARLLIYAVLPTGDVIGDSAKYDVENCLANKVDLSFSPSQSLPASHAHLRVTAAPQSVCALRAVDQSVLLMKPDAELSASSVYNLLPEKDLTGFPGPLNDQDNEDCINRHNVYINGITYTPVSSTNEKDMYSFLEDMGLKAFTNSKIRKPKMCPQLQQYEMHGPEGLRVGFYESDVMGRGHARLVHVEEPHTETVRKYFPETWIWDLVVVNSAGVAEVGVTVPDTITEWKAGAFCLSEDAGLGISSTASLRAFQPFFVELTMPYSVIRGEAFTLKATVLNYLPKCIRVSVQLEASPAFLAVPVEKEQAPHCICANGRQTVSWAVTPKSLGNVNFTVSAEALESQELCGTEVPSVPEHGRKDTVIKPLLVEPEGLEKETTFNSLLCPSGGEVSEELSLKLPPNVVEESARASVSVLGDILGSAMQNTQNLLQMPYGCGEQNMVLFAPNIYVLDYLNETQQLTPEIKSKAIGYLNTGYQRQLNYKHYDGSYSTFGERYGRNQGNTWLTAFVLKTFAQARAYIFIDEAHITQALIWLSQRQKDNGCFRSSGSLLNNAIKGGVEDEVTLSAYITIALLEIPLTVTHPVVRNALFCLESAWKTAQEGDHGSHVYTKALLAYAFALAGNQDKRKEVLKSLNEEAVKKDNSVHWERPQKPKAPVGHFYEPQAPSAEVEMTSYVLLAYLTAQPAPTSEDLTSATNIVKWITKQQNAQGGFSSTQDTVVALHALSKYGAATFTRTGKAAQVTIQSSGTFSSKFQVDNNNRLLLQQVSLPELPGEYSMKVTGEGCVYLQTSLKYNILPEKEEFPFALGVQTLPQTCDEPKAHTSFQISLSVSYTGSRSASNMAIVDVKMVSGFIPLKPTVKMLERSNHVSRTEVSSNHVLIYLDKVSNQTLSLFFTVLQDVPVRDLKPAIVKVYDYYETDEFAIAEYNAPCSKDLGNA", "modifications": "β-cysteinyl-γ-glutamyl thioester bond C972–Q975; glycosylated", "notes": "human α2-macroglobulin, secreted glycosylated 1451-residue protein; homotetramer, a dimer of disulfide-linked dimers; Authentic protein from the plasma of anonymous healthy donors; also called hα2M; native hα2M"}},
  "target": "the molecule itself",
  "assay": "SEC-MALS; Superose 6 10/300 Increase column, buffer C (20 mM Tris–HCl, 150 mM sodium chloride, pH 7.4), 25 °C; native and MA-treated hα2M from FR and NF plasma",
  "data": [
    {"protein": "B1", "values": [
      {"measurement": "stoichiometry N", "value": 4}
    ]}
  ]
}
